The values that follow come from patent US20180282373.

This data set deals with purified recombinant full-length WDR5 (UniProt P61964).

For “GST-tagged MLL2 Win-SET domain, MLL2(5319-5537), Win motif arginine to alanine mutant”, the “core complex H3K4 dimethylation activity, mutant against wild type” value is “a 2-fold increase in this activity with the MLL2 Win motif variant”.

On to “GST-tagged MLL4 Win-SET domain, MLL4(2490-2715), Win motif arginine to alanine mutant”, for which the “core complex methyltransferase activity, H3K4me1 peptide, mutant against wild type” value is on record as “showed similar amounts of activity compared to that of their wild-type counterparts”. On to “GST-tagged SETd1A Win-SET domain, Setd1A(1474-1708), Win motif arginine to alanine mutant”, for which the “core complex methyltransferase activity, H3K4me1 and H3K4me2 peptides, mutant against wild type” value is recorded as “at least a 2-fold reduction in activity compared to their wild-type counterparts”.
